B1: mαCTLA-4 (mouse surrogate anti-CTLA-4 antagonist payload; anti-CTLA-4 VHH fused to the heavy chain of mouse IgG2a Fc), expressed from mJP-OV-2 (Fc fusion)
chain: QVQLVESGGGLAQPGGSLRLSCAASGSTISSVAVGWYRQTPGNQREWVATSSTSSTTATYADSVKGRFTISRDNAKNTIYLQMNSLKPEDTAVYYCKTGLTNWGRGTQVTVSSEPRGPTIKPCPPCKCPAPNLLGGPSVFIFPPKIKDVLMISLSPIVTCVVVDVSEDDPDVQISWFVNNVEVHTAQTQTHREDYNSTLRVVSALPIQHQDWMSGKEFKCKVNNKDLPAPIERTISKPKGSVRAPQVYVLPPPEEEMTKKQVTLTCMVTDFMPEDIYVEWTNNGKTELNYKNTEPVLDSDGSYFMYSKLRVEKKNWVERNSYSCSVVHEGLHNHHTTKSFSRTPGK
notes: also called Mouse CTLA-4 antagonist payload; OVTSB24

Legend:
[1] = target: human CD40 receptor, stably expressed on HEK293 (HEK-Blue) reporter cells (human) (UniProt P25942)
mouse CTLA-4 = target: T1, mouse CTLA-4 (mouse, UniProt P09793 36-161); experiment: ELISA on immobilized mCTLA-4; supernatant of Vero cells infected with mJP-OV-2 (FIG. 33)
T1 construct: also called mCTLA-4

| Molecule | EC50 (read off the curve), CD40 reporter cells, OD 650 nM [1] [ng/mL] | binding result (mouse CTLA-4) |
| --- | --- | --- |
| hCD40ag (human CD40 agonist payload; Fc-less trimer of single-chain CD40L ectodomain trimer bundles with T4 fibritin trimerization motif), purified (ligand) | 3 | – |
| B1 | – | binds |

— patent publication US20240269203A1 (Janssen / Centocor, published 2024)
